In the supplement of paper PMC9112550, “Optimization of the antimicrobial peptide Bac7 by deep mutational scanning” (BMC Biology, 2022):

Each sequence was assayed on Escherichia coli TOP10 (assay: shrunken log2 fold change of peptide-encoding DNA abundance (4.5 h post-induction vs induction); higher = less antimicrobial activity (less host growth inhibition)). Details: time post-induction: 4.5 h; library: site-saturation at positions 5, 18, 19, 20.
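Note: peptides expressed intracellularly from a pBAD plasmid library in pooled LB shake-flask culture, induced with 0.3% L-arabinose, DNA abundance read by NGS, three biological replicates, DESeq2 with apeglm shrinkage.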

Going from RRIRWRPPRLPRPRPRPNFAPRP to RRIRCRPPRLPRPRPRPLPFPRP, the “shrunken log2 fold change” value falls from 0.29 to -0.71.

Compared with RRIRMRPPRLPRPRPRPWYCPRP, RRIRMRPPRLPRPRPRPDGRPRP is higher in “shrunken log2 fold change” value: -0.336 for the first, -0.00101 for the second.

First: RRIRWRPPRLPRPRPRPKPTPRP
Second: RRIRMRPPRLPRPRPRPMRKPRP
The “shrunken log2 fold change” value of the first is lower: 0.0876 for the first, 0.361 for the second.

Compared with RRIRKRPPRLPRPRPRPLIHPRP, RRIRPRPPRLPRPRPRPVQEPRP is lower in “shrunken log2 fold change” value: 1.09 for the first, -0.0759 for the second.

First: RRIRWRPPRLPRPRPRPVLVPRP
Second: RRIRMRPPRLPRPRPRPDGCPRP
The “shrunken log2 fold change” value of the first is lower: 0.298 for the first, 2.12 for the second.

Going from RRIRARPPRLPRPRPRPQFLPRP to RRIRTRPPRLPRPRPRPMGYPRP, the “shrunken log2 fold change” value rises from -0.265 to 0.0627.

RRIRLRPPRLPRPRPRPFQRPRP and RRIRIRPPRLPRPRPRPATQPRP are within 0.2 log units of each other in “shrunken log2 fold change” value: -0.0382 for the first, 0.129 for the second.

Going from RRIRWRPPRLPRPRPRPPLFPRP to RRIRCRPPRLPRPRPRPCENPRP, the “shrunken log2 fold change” value falls from 0.42 to 0.0291.

RRIRVRPPRLPRPRPRPVTIPRP and RRIRERPPRLPRPRPRPIVDPRP are within 0.2 log units of each other in “shrunken log2 fold change” value: -0.232 for the first, -0.204 for the second.

First: RRIRRRPPRLPRPRPRPSFNPRP
Second: RRIRARPPRLPRPRPRPAFIPRP
The “shrunken log2 fold change” value of the first is lower: -0.192 for the first, 0.142 for the second.

RRIRSRPPRLPRPRPRPQNKPRP and RRIRYRPPRLPRPRPRPCFSPRP are within 0.2 log units of each other in “shrunken log2 fold change” value: -0.561 for the first, -0.594 for the second.

Compared with RRIRTRPPRLPRPRPRPGRPPRP, RRIRLRPPRLPRPRPRPSICPRP is lower in “shrunken log2 fold change” value: 0.217 for the first, -0.0314 for the second.

Going from RRIRKRPPRLPRPRPRPDFDPRP to RRIRNRPPRLPRPRPRPVQTPRP, the “shrunken log2 fold change” value rises from -0.183 to 0.12.

Going from RRIRYRPPRLPRPRPRPYVFPRP to RRIRQRPPRLPRPRPRPLGIPRP, the “shrunken log2 fold change” value falls from -0.0427 to -0.381.

First: RRIRMRPPRLPRPRPRPMQQPRP
Second: RRIRWRPPRLPRPRPRPTAFPRP
The “shrunken log2 fold change” value of the first is higher: 1.38 for the first, 0.276 for the second.

RRIRFRPPRLPRPRPRPPIDPRP and RRIRVRPPRLPRPRPRPLPMPRP are within 0.2 log units of each other in “shrunken log2 fold change” value: 0.113 for the first, 0.0885 for the second.

Going from RRIRCRPPRLPRPRPRPACSPRP to RRIRHRPPRLPRPRPRPHQNPRP, the “shrunken log2 fold change” value falls from -0.0823 to -0.494.

First: RRIRCRPPRLPRPRPRPQYKPRP
Second: RRIRVRPPRLPRPRPRPHDCPRP
The “shrunken log2 fold change” value of the first is lower: -0.991 for the first, -0.162 for the second.

RRIRYRPPRLPRPRPRPEKCPRP and RRIRKRPPRLPRPRPRPAIRPRP are within 0.2 log units of each other in “shrunken log2 fold change” value: -0.26 for the first, -0.29 for the second.

Going from RRIRMRPPRLPRPRPRPSHWPRP to RRIRIRPPRLPRPRPRPDWSPRP, the “shrunken log2 fold change” value falls from 0.0911 to -0.161.

Going from RRIRCRPPRLPRPRPRPYTHPRP to RRIRYRPPRLPRPRPRPYTYPRP, the “shrunken log2 fold change” value rises from -1.19 to -0.438.

Compared with RRIRFRPPRLPRPRPRPTMIPRP, RRIRKRPPRLPRPRPRPQMMPRP is higher in “shrunken log2 fold change” value: -0.941 for the first, -0.0245 for the second.

Going from RRIRQRPPRLPRPRPRPKSHPRP to RRIRGRPPRLPRPRPRPSRIPRP, the “shrunken log2 fold change” value falls from -0.0261 to -0.234.

Going from RRIRHRPPRLPRPRPRPAMLPRP to RRIRCRPPRLPRPRPRPAAFPRP, the “shrunken log2 fold change” value rises from -0.168 to 0.292.

First: RRIRGRPPRLPRPRPRPPFQPRP
Second: RRIRPRPPRLPRPRPRPYPVPRP
The “shrunken log2 fold change” value of the first is higher: 0.358 for the first, -0.247 for the second.

RRIRHRPPRLPRPRPRPTVWPRP and RRIRVRPPRLPRPRPRPIKKPRP are within 0.2 log units of each other in “shrunken log2 fold change” value: 0.123 for the first, -0.015 for the second.

Going from RRIRMRPPRLPRPRPRPTMFPRP to RRIRDRPPRLPRPRPRPLFIPRP, the “shrunken log2 fold change” value falls from 0.137 to -0.184.

Compared with RRIRTRPPRLPRPRPRPYNPPRP, RRIRNRPPRLPRPRPRPRGVPRP is higher in “shrunken log2 fold change” value: -0.224 for the first, 0.195 for the second.

Going from RRIRFRPPRLPRPRPRPTPMPRP to RRIRGRPPRLPRPRPRPTGQPRP, the “shrunken log2 fold change” value rises from 0.178 to 0.793.

Compared with RRIRRRPPRLPRPRPRPQHFPRP, RRIRIRPPRLPRPRPRPNVVPRP is lower in “shrunken log2 fold change” value: 0.256 for the first, -0.508 for the second.

First: RRIRGRPPRLPRPRPRPHYTPRP
Second: RRIRTRPPRLPRPRPRPSNTPRP
The “shrunken log2 fold change” value of the first is higher: -0.379 for the first, -0.732 for the second.

RRIRYRPPRLPRPRPRPVTFPRP and RRIRWRPPRLPRPRPRPNDPPRP are within 0.2 log units of each other in “shrunken log2 fold change” value: -0.0285 for the first, -0.137 for the second.

Compared with RRIRKRPPRLPRPRPRPGLNPRP, RRIRYRPPRLPRPRPRPSSMPRP is lower in “shrunken log2 fold change” value: 0.0896 for the first, -0.999 for the second.

First: RRIRCRPPRLPRPRPRPWRWPRP
Second: RRIRRRPPRLPRPRPRPMFCPRP
The “shrunken log2 fold change” value of the first is higher: 0.568 for the first, 0.235 for the second.

RRIRQRPPRLPRPRPRPWAKPRP and RRIRMRPPRLPRPRPRPMMLPRP are within 0.2 log units of each other in “shrunken log2 fold change” value: -0.000896 for the first, -0.15 for the second.

Going from RRIRWRPPRLPRPRPRPQVTPRP to RRIRGRPPRLPRPRPRPPWDPRP, the “shrunken log2 fold change” value rises from -0.0309 to 0.832.

Going from RRIRDRPPRLPRPRPRPKAHPRP to RRIRCRPPRLPRPRPRPANCPRP, the “shrunken log2 fold change” value falls from 0.0408 to -0.364.

RRIRDRPPRLPRPRPRPVKTPRP and RRIRWRPPRLPRPRPRPWPNPRP are within 0.2 log units of each other in “shrunken log2 fold change” value: 0.0145 for the first, 0.0899 for the second.

Going from RRIRDRPPRLPRPRPRPEFGPRP to RRIRERPPRLPRPRPRPLDFPRP, the “shrunken log2 fold change” value falls from 0.914 to -0.353.

Compared with RRIRTRPPRLPRPRPRPCPPPRP, RRIRHRPPRLPRPRPRPKMNPRP is lower in “shrunken log2 fold change” value: -0.143 for the first, -0.487 for the second.

RRIRKRPPRLPRPRPRPIELPRP and RRIRGRPPRLPRPRPRPWCVPRP are within 0.2 log units of each other in “shrunken log2 fold change” value: -0.025 for the first, 0.121 for the second.

First: RRIRPRPPRLPRPRPRPTRMPRP
Second: RRIRFRPPRLPRPRPRPQQRPRP
The “shrunken log2 fold change” value of the first is higher: 0.479 for the first, 0.061 for the second.

Going from RRIRWRPPRLPRPRPRPIPTPRP to RRIRTRPPRLPRPRPRPVAPPRP, the “shrunken log2 fold change” value rises from -0.0487 to 0.389.

Compared with RRIRNRPPRLPRPRPRPACLPRP, RRIRSRPPRLPRPRPRPPDLPRP is higher in “shrunken log2 fold change” value: 0.146 for the first, 0.543 for the second.

RRIRRRPPRLPRPRPRPWMEPRP and RRIRNRPPRLPRPRPRPSPWPRP are within 0.2 log units of each other in “shrunken log2 fold change” value: -0.137 for the first, 0.0438 for the second.

RRIRYRPPRLPRPRPRPDQQPRP and RRIRNRPPRLPRPRPRPGLTPRP are within 0.2 log units of each other in “shrunken log2 fold change” value: -0.0144 for the first, -0.0698 for the second.

RRIRARPPRLPRPRPRPDQMPRP and RRIRGRPPRLPRPRPRPDLCPRP are within 0.2 log units of each other in “shrunken log2 fold change” value: 0.386 for the first, 0.445 for the second.

First: RRIRDRPPRLPRPRPRPCSTPRP
Second: RRIRIRPPRLPRPRPRPLDQPRP
The “shrunken log2 fold change” value of the first is higher: 0.248 for the first, -0.127 for the second.

First: RRIRARPPRLPRPRPRPKKHPRP
Second: RRIRTRPPRLPRPRPRPPHGPRP
The “shrunken log2 fold change” value of the first is higher: 0.417 for the first, -0.228 for the second.

RRIRGRPPRLPRPRPRPSHSPRP and RRIRFRPPRLPRPRPRPFMSPRP are within 0.2 log units of each other in “shrunken log2 fold change” value: 0.0319 for the first, -0.0532 for the second.

Going from RRIRWRPPRLPRPRPRPPDAPRP to RRIRIRPPRLPRPRPRPEFYPRP, the “shrunken log2 fold change” value falls from 0.5 to -0.333.

First: RRIRTRPPRLPRPRPRPDQNPRP
Second: RRIRLRPPRLPRPRPRPAVWPRP
The “shrunken log2 fold change” value of the first is lower: 0.0691 for the first, 0.72 for the second.

RRIRERPPRLPRPRPRPCHKPRP and RRIRSRPPRLPRPRPRPGWTPRP are within 0.2 log units of each other in “shrunken log2 fold change” value: -0.154 for the first, -0.0313 for the second.

Going from RRIRTRPPRLPRPRPRPWYLPRP to RRIRSRPPRLPRPRPRPYAQPRP, the “shrunken log2 fold change” value falls from -0.0692 to -0.535.

Going from RRIRSRPPRLPRPRPRPRLCPRP to RRIRNRPPRLPRPRPRPDDSPRP, the “shrunken log2 fold change” value falls from 0.28 to -0.263.

Going from RRIRWRPPRLPRPRPRPQNVPRP to RRIRERPPRLPRPRPRPWFDPRP, the “shrunken log2 fold change” value falls from -0.0645 to -0.529.

RRIRWRPPRLPRPRPRPKHWPRP and RRIRPRPPRLPRPRPRPTPQPRP are within 0.2 log units of each other in “shrunken log2 fold change” value: 0.4 for the first, 0.497 for the second.

RRIRGRPPRLPRPRPRPRIIPRP and RRIRMRPPRLPRPRPRPSDSPRP are within 0.2 log units of each other in “shrunken log2 fold change” value: 0.0317 for the first, 0.0495 for the second.

RRIRRRPPRLPRPRPRPTDFPRP and RRIRERPPRLPRPRPRPRSKPRP are within 0.2 log units of each other in “shrunken log2 fold change” value: -0.00455 for the first, 0.00172 for the second.

First: RRIRWRPPRLPRPRPRPDADPRP
Second: RRIRHRPPRLPRPRPRPNCKPRP
The “shrunken log2 fold change” value of the first is higher: 3.34 for the first, -0.211 for the second.

First: RRIRHRPPRLPRPRPRPSPWPRP
Second: RRIRSRPPRLPRPRPRPVEWPRP
The “shrunken log2 fold change” value of the first is lower: 0.0405 for the first, 0.31 for the second.

First: RRIRQRPPRLPRPRPRPKLHPRP
Second: RRIRARPPRLPRPRPRPTRVPRP
The “shrunken log2 fold change” value of the first is lower: -0.201 for the first, 0.343 for the second.

For RRIRIRPPRLPRPRPRPEWIPRP, the “shrunken log2 fold change” value was 0.0384.
